Like-named read-outs stand apart in the source and are kept apart here.
T1: human B7-H4-his (human, UniProt Q7Z7D3 25-259)
T1 construct: also called hB7-H4-his; hB7-H4 his; not shown: his tag
T1 sequence: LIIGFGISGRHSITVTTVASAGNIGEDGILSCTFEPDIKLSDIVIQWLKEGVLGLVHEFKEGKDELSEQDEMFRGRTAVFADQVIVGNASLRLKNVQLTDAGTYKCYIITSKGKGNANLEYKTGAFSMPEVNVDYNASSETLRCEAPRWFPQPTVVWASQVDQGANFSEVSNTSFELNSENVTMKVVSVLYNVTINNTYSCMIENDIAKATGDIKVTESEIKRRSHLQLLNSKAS

T2: mouse B7-H4 expressed on cells (mouse, UniProt Q7TSP5 25-257)
T2 construct: also called cellular mB7-H4; mB7-H4/CT26
T2 sequence: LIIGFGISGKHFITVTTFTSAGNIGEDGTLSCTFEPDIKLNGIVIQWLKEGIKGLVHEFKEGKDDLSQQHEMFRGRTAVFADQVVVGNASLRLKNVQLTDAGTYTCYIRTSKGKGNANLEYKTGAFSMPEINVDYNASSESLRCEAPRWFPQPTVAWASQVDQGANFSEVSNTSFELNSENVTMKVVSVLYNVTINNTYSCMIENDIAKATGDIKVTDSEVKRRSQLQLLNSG

T3: human B7-H4 expressed on cells (human, UniProt Q7Z7D3 25-282)
T3 construct: Transfected CHO cells or tumor cell lines that carry hB7-H4; also called cellular hB7-H4
T3 sequence: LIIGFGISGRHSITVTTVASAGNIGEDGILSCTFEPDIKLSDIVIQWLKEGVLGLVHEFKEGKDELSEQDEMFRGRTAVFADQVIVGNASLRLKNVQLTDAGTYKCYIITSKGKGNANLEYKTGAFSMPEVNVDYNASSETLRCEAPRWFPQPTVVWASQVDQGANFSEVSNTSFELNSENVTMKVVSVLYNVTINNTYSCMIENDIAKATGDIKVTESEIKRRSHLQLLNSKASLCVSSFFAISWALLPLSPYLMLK

T4: mB7-H4 (soluble mouse B7-H4, construct not named) (mouse, UniProt Q7TSP5 25-257, limits assumed)
T4 sequence: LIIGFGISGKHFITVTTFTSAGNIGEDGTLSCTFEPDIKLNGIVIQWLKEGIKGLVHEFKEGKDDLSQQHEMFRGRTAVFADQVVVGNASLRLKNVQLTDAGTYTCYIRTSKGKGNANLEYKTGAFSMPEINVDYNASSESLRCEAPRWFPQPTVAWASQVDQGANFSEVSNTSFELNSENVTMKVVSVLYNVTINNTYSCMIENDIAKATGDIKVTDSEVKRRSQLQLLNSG

T5: mouse B7-H4-his (mouse, UniProt Q7TSP5 25-257)
T5 construct: also called mB7-H4-his; mB7-H4-His; not shown: his tag
T5 sequence: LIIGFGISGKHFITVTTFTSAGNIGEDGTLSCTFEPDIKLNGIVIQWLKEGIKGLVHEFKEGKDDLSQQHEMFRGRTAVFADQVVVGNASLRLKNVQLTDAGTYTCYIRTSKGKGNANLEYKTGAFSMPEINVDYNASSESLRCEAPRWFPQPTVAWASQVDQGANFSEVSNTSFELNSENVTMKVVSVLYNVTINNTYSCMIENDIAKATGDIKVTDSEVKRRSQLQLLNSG

T6: hB7-H4 (soluble human B7-H4, construct not named) (human, UniProt Q7Z7D3 25-259, limits assumed)
T6 construct: also called soluble hB7-H4
T6 sequence: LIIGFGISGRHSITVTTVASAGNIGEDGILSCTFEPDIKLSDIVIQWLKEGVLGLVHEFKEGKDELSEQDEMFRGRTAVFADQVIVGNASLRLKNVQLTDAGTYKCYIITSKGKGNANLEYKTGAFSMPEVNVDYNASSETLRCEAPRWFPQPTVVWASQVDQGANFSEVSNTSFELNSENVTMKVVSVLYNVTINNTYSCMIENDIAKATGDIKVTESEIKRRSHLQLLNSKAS


How the values were obtained:
human B7-H4-his = target: T1, human B7-H4-his; assay: ELISA, coated hB7-H4-his
Procedure: (§1) About 1-2 μg/ml of human or mouse B7-H4-Fc (or his-tagged) was immobilized on ELISA plates (Immuno 2HB, Thermo scientific, cat #3455) at 4° C. overnight. After blocking the plates with 3% PBS+milk, serial diluted antibodies were added to the blocked plates and incubated at RT for 1-1.5 h. After washing the plates with PBS-T (0.05%), horse radish peroxidase (HRP)-conjugated antibody targeting the hFab was added to the plate. Signals were developed by adding 3,3′,5,5′-Tetramethylbenzidine (TMB (followed 1N of H₂SO₄ to stop the reaction. The OD at 450 nm was read by ELISA plate reader (Infinite M1000 from TECAN). GraphPad from Prism was used to plot OD450 vs. antibody concentration curve and to calculate the EC50 values.

[1] = target: T2, mouse B7-H4 expressed on cells; assay: flow cytometry, mB7-H4/CT26 cells
Procedure: (§2) Cells were harvested, washed once, and then re-suspended to the concentration of 1×10⁶ cells/ml in ice cold FACS Buffer. 25 μl of cell suspension was added to each well of a 96-well round-bottom microliter plate. Serially diluted antibodies or fusion proteins were added to each well and incubated for 1 hour at 4° C. Cells were washed three times by centrifugation at 1500 rpm for 5 minutes, and then stained with secondary antibody (1:200 dilution) for 30 min at 4° C. in the dark. Cells were washed once, re-suspended in 100 μl PBS buffer and then analyzed using Guava Flow Cytometry EasyCyte system.

[2] = target: T3, human B7-H4 expressed on cells; assay: flow cytometry, SK-BR-3 cells
Procedure: as §2

mouse B7-H4-Fc = target: T7, mouse B7-H4-Fc (mouse; human); assay: ELISA, coated mB7-H4-Fc
T7 construct: also called mB7-H4-Fc; mB7-H4-hFc
T7 sequence (chain, as listed by the source): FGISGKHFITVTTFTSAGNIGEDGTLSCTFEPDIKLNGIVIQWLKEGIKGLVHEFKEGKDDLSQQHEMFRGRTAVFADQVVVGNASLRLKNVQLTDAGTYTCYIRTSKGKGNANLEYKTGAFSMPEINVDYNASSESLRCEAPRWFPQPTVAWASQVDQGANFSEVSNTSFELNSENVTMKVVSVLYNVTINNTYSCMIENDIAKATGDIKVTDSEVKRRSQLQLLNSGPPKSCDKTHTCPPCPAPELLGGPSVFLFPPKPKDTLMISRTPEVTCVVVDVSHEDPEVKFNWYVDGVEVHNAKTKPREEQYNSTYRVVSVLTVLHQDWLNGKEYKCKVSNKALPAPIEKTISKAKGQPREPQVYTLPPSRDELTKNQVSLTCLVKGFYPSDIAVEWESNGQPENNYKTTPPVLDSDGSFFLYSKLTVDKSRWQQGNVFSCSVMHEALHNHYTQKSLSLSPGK
Procedure: as §1

[3] = target: T4, mB7-H4 (soluble mouse B7-H4, construct …); assay: ELISA, mB7-H4
Procedure: as §1

mouse B7-H4-his = target: T5, mouse B7-H4-his; assay: ELISA, coated mB7-H4-his (title on the sheet: Binding to mB7H4-his)
Procedure: as §1

[4] = target: T6, hB7-H4 (soluble human B7-H4, construct …); assay: ELISA, hB7-H4
Procedure: as §1

[5] = target: T6, hB7-H4 (soluble human B7-H4, construct …); assay: SPR (Biacore)
Procedure: (§3) Surface plasmon resonance experiments were performed using a Biacore T200 instrument equipped with CM5 sensor chips. The system was equilibrated in running buffer HBS-EP pH 7.4. The ligands were immobilized using amine-coupling chemistry. The surfaces of flow cells one through four were activated for 5 min using an amine coupling kit at a flow rate of […]. The ligands (human B7-H4-Fc, human B7-H4-hism and mouse B7-H4-Fc; at a concentration of 5 μg/ml in 10 mM sodium acetate, pH 5.0) were immobilized at a density of 50-100 RU on flow cell 2, 3, 4 respectively. Flow cell 1 was left blank to serve as a reference surface. All flow cell surfaces were blocked with a 5 min injection of 1 M ethanolamine, pH 8.0. To collect kinetic binding data, the respective analyte (diluted in 1×HBS-EP buffer, pH 7.4) was injected over the four flow cells at concentrations of 100 nM to 0.1 nM at a flow rate of […] and at a temperature of 25° C. The protein complex was allowed to associate and dissociate for 180 seconds and 1000 or 1200 seconds, respectively. The surfaces were regenerated with a 30 second injection of 1.5 M NaCl/0.05 M NaOH. The data were fit to a simple 1:1 interaction model using the Langmuir fit option available within the Biaevaluaton software

[6] = target: T4, mB7-H4 (soluble mouse B7-H4, construct …); assay: SPR (Biacore)
Procedure: as §3

[7] = target: T4, mB7-H4 (soluble mouse B7-H4, construct …); assay: SPR (Biacore); values equal to Table 11
[8] = target: T3, human B7-H4 expressed on cells; assay: flow cytometry, SK-BR-3 cells; remark: listed apart in the source
[9] = target: T2, mouse B7-H4 expressed on cells; assay: flow cytometry, mB7-H4/CT26 cells; remark: listed apart in the source
[10] = target: T4, mB7-H4 (soluble mouse B7-H4, construct …); assay: ELISA, mB7-H4; remark: listed apart in the source
Procedure: as §1

[11] = target: T8, IgV domain of human B7-H4-Fc (human); assay: ELISA, coated hB7-H4 IgV domain
T8 construct: also called hB7-H4 IgV domain
T8 sequence (chain, as listed by the source): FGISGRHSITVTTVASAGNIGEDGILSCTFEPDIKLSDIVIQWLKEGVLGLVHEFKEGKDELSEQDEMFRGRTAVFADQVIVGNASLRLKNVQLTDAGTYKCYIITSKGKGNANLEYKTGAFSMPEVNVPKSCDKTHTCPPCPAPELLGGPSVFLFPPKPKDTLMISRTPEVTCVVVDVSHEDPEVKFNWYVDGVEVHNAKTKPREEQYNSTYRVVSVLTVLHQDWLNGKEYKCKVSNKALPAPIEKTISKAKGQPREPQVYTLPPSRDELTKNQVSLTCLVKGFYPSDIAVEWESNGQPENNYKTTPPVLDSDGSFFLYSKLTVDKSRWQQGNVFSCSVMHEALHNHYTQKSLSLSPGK

[12] = target: T6, hB7-H4 (soluble human B7-H4, construct …); assay: SPR (Biacore); remark: listed apart in the source
[13] = target: T9, IgV domain of mouse B7-H4-Fc (mouse; human); assay: ELISA, coated mB7-H4 IgV domain
T9 construct: also called mB7-H4 IgV domain
T9 sequence (chain, as listed by the source): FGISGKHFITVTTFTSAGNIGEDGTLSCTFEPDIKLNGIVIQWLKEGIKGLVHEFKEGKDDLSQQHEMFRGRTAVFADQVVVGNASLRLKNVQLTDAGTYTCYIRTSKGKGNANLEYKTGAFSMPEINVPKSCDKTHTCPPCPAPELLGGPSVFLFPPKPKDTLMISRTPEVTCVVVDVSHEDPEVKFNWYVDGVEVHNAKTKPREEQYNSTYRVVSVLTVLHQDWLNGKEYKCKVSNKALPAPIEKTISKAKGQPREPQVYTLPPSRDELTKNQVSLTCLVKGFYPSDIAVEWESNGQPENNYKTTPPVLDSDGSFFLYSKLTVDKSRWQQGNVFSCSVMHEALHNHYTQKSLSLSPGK

[14] = target: T6, hB7-H4 (soluble human B7-H4, construct …); assay: ELISA, hB7-H4; remark: listed apart in the source
Procedure: as §1

[15] = target: T10, IgC domain of human B7-H4-Fc (human); assay: ELISA, coated hB7-H4 IgC domain
T10 construct: also called hB7-H4 IgC domain
T10 sequence (chain, as listed by the source): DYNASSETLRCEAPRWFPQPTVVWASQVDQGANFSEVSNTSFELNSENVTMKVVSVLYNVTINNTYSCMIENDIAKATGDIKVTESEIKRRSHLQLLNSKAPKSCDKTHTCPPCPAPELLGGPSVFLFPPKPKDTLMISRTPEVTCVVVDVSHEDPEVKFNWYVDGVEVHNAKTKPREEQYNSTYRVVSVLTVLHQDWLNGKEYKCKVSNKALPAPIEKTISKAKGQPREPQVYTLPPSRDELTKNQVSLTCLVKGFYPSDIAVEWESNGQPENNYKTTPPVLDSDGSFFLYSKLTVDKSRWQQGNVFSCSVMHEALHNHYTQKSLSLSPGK

EC50 (read off the curve) (human B7-H4-his) | EC50 [1] | EC50 [2] | binding result (mouse B7-H4-Fc) | EC50 [3] | EC50 (read off the curve) (mouse B7-H4-his) | EC50 [4] | Kd [5] | Kd [6] | Kd [7] | EC50 [8] | EC50 [9] | EC50 [10] | binding result [11] | Kd [12] | binding result [13] | EC50 [14] | EC50 (read off the curve) [15] | Binder
~0.2 nM | 28.2 nM | 4.06 nM | binds | 0.086 nM | ~0.2 nM | 0.112 nM | 11.4 nM | 10.4 nM | – | – | – | – | – | – | – | – | – | 9D11/67C3 (antibody, human IgG1, V domains shown, 9D11 VH with 67C3 VL) VH: QVQLVQSGAEVKKPGASVKVSCKASGYTFTSYGISWVRQAPGQGLEWVGVINPNGGTTTYAQTFQGRVTMTRDTSTSTVYMELSSLRSEDTAVYYCARTGYSSGWAFDYWGRGTLVTVSS VL: not shown
~0.2 nM | 31.8 nM | 9.53 nM | binds | 0.145 nM | ~0.1 nM | 0.778 nM | 7.15 nM | 5.96 nM | 2.96 nM | 3.53 nM | 9.41 nM | 0.144 nM | no binding (tested: log 1 nM (10 nM)) | 2.96 nM | no binding (tested: log 1 nM (10 nM)) | 0.105 nM | ~0.1 nM | 9D11/68F5 (antibody, human IgG1, V domains shown, 9D11 VH with 68F5 VL) VH: QVQLVQSGAEVKKPGASVKVSCKASGYTFTSYGISWVRQAPGQGLEWVGVINPNGGTTTYAQTFQGRVTMTRDTSTSTVYMELSSLRSEDTAVYYCARTGYSSGWAFDYWGRGTLVTVSS VL: not shown
~0.2 nM | 16.7 nM | 8.08 nM | binds | 0.11 nM | ~0.1 nM | 0.203 nM | 6.3 nM | 4.66 nM | – | – | – | – | – | – | – | – | – | 9D11/67E12 (antibody, human IgG1, V domains shown, 9D11 VH with 67E12 VL) VH: QVQLVQSGAEVKKPGASVKVSCKASGYTFTSYGISWVRQAPGQGLEWVGVINPNGGTTTYAQTFQGRVTMTRDTSTSTVYMELSSLRSEDTAVYYCARTGYSSGWAFDYWGRGTLVTVSS VL: not shown

— patent US20230312724A1 (KADMON, published 2023)
